Measurements published in the supplement of paper PMC10724198.
± gives the standard deviation of the averaged measurements.

Test system: Saccharomyces cerevisiae
Test: protein stability index of tFT-peptide fusion (C-terminal peptide) (PSI (0-1 scale)); higher = more stable (slower turnover)
Details: genetic background: wild type; temperature: 30 C
Procedure: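 MPS profiling in S. cerevisiae of the yeast C-terminome library: the last 12 aa of each annotated ORF are fused to the C-terminus of a sfGFP-mCherry timer, after a GGGS linker. Cells are FACS-sorted into 8 mCherry/sfGFP bins and deep-sequenced. PSI runs from 0 (unstable) to 1 (stable); wild type and das1Δ backgrounds, two technical replicates each.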

Row | Sequence | protein stability index
1 | QKRKSRILSFIK [UBP9 C-terminal 12 aa] | 0.732 ± 0.047
2 | QLINGRKIIAGN [MOT2 C-terminal 12 aa] | 0.7 ± 0.09
3 | QLVKLQLVELKL [LAM5 C-terminal 12 aa] | 0.602 ± 0.026
4 | QMQQMAKQFGMG [SRP54 C-terminal 12 aa] | 0.68513 ± 0.00031
5 | QMSAMTEKFGKL [YKL068W-A C-terminal 12 aa] | 0.693 ± 0.015
6 | QNEICQYDNTSP [YGR109W-B C-terminal 12 aa] | 0.694 ± 0.012
7 | QNLLSAYRMNHK [AVO1 C-terminal 12 aa] | 0.64 ± 0.021
8 | QQGGAGADQKTE [EMC10 C-terminal 12 aa] | 0.656 ± 0.028
9 | QQQQQQQQQQQQ [PUB1 C-terminal 12 aa] | 0.672 ± 0.052
10 | QVSLLLGFSSRS [MRX20 C-terminal 12 aa] | 0.7 ± 0.011
11 | QYDYELIQVQCS [PPN2 C-terminal 12 aa] | 0.51 ± 0.032
12 | QYVLYKNEAGDK [AIM39 C-terminal 12 aa] | 0.698 ± 0.019
13 | RAVTKYSSSTQA [HTB1 C-terminal 12 aa] | 0.695 ± 0.034
14 | RDLFEIYQKMMQ [MUK1 C-terminal 12 aa] | 0.706 ± 0.056
15 | RDNQIPDKEIGI [CAF16 C-terminal 12 aa] | 0.704 ± 0.072
16 | REAKNLPKPSFL [EDC1 C-terminal 12 aa] | 0.698 ± 0.0091
17 | RELLKSLVLSHR [RSM23 C-terminal 12 aa] | 0.683 ± 0.019
18 | RFLDYVRELESF [PDX1 C-terminal 12 aa] | 0.70618 ± 0.0004
19 | RGSEHYTKRKKI [UBS1 C-terminal 12 aa] | 0.6822 ± 0.0035
20 | RIELSKYYNTNL [YPD1 C-terminal 12 aa] | 0.716 ± 0.059
21 | RIIEYFEEYQCW [FRE6 C-terminal 12 aa] | 0.731 ± 0.042

Row | Sequence | protein stability index
22 | RKEDDKRDTQEK [SOF1 C-terminal 12 aa] | 0.67 ± 0.019
23 | RKELEKGKKNSK [YLR363W-A C-terminal 12 aa] | 0.703 ± 0.054
24 | RKFVFNPPKPRK [CYT1 C-terminal 12 aa] | 0.694 ± 0.056
25 | RKYPNQCGTISN [EXG1 C-terminal 12 aa] | 0.674 ± 0.03
26 | RLQQVRKNPYPF [OPI7 C-terminal 12 aa] | 0.712 ± 0.032
27 | RLYDRINGKPHD [MRP10 C-terminal 12 aa] | 0.668 ± 0.021
28 | RNVYSTKTRCIE [TDA10 C-terminal 12 aa] | 0.699 ± 0.023
29 | RQDNNHNGSSNG [MET32 C-terminal 12 aa] | 0.706 ± 0.025
30 | RQFKEILTVKEE [RRP40 C-terminal 12 aa] | 0.687 ± 0.013
31 | RQNDKGAIKKSK [YEA4 C-terminal 12 aa] | 0.719 ± 0.049
32 | RRAAESGKLKME [YNL108C C-terminal 12 aa] | 0.698 ± 0.067
33 | RRDYWLSKGQAL [TRF5 C-terminal 12 aa] | 0.725 ± 0.032
34 | RREATRISDLLK [FMS1 C-terminal 12 aa] | 0.703 ± 0.06
35 | RRRASKNAFRGM [ENP2 C-terminal 12 aa] | 0.692 ± 0.014
36 | RSRKWKRRLFHL [PEX32 C-terminal 12 aa] | 0.6 ± 0.12
37 | RSRSINGDWRKD [PAN5 C-terminal 12 aa] | 0.6967 ± 0.0028
38 | RSTFLMHGRLAT [MAK3 C-terminal 12 aa] | 0.702 ± 0.019
39 | RVAVIEDDEDED [LEO1 C-terminal 12 aa] | 0.692 ± 0.021
40 | RVGQTNSPSDSQ [DFM1 C-terminal 12 aa] | 0.695 ± 0.049
41 | RVKILHRDDTKK [UPF3 C-terminal 12 aa] | 0.732 ± 0.093
42 | RWHIQRITSPLS [STP22 C-terminal 12 aa] | 0.719 ± 0.028

Row | Sequence | protein stability index
43 | RYKILDLIISKL [UTP6 C-terminal 12 aa] | 0.683 ± 0.04
44 | RYVIFQSCGLIL [MRX8 C-terminal 12 aa] | 0.683 ± 0.012
45 | SAQDSDIDLQDA [MCM7 C-terminal 12 aa] | 0.682 ± 0.031
46 | SASSTPSSTTMS [SPT20 C-terminal 12 aa] | 0.681 ± 0.011
47 | SCRTTPQVRARA [YLR279W C-terminal 12 aa] | 0.6946 ± 0.0043
48 | SDENIQPELRGQ [ABF1 C-terminal 12 aa] | 0.723 ± 0.047
49 | SEETKKSCCSGK [CUP1-1 C-terminal 12 aa] | 0.757 ± 0.048
50 | SEINDDFHQWAQ [DEP1 C-terminal 12 aa] | 0.698 ± 0.0071
51 | SEIVDISQLPPG [ILV6 C-terminal 12 aa] | 0.7033 ± 0.0062
52 | SFDVELVGLKFV [YHL019W-A C-terminal 12 aa] | 0.695 ± 0.029
53 | SFFCRSSSKSSK [YSC83 C-terminal 12 aa] | 0.724 ± 0.0074
54 | SGFFSSLKTMFN [PAR32 C-terminal 12 aa] | 0.726 ± 0.058
55 | SGNNLGICFYKE [NUP170 C-terminal 12 aa] | 0.677 ± 0.019
56 | SHYHMWPIKRII [YMR082C C-terminal 12 aa] | 0.567 ± 0.011
57 | SIDELETEISTW [BCP1 C-terminal 12 aa] | 0.6932 ± 0.0068
58 | SKEFVGSVYLNF [TRL1 C-terminal 12 aa] | 0.678 ± 0.03
59 | SKILFLCQINIS [YNR042W C-terminal 12 aa] | 0.313 ± 0.015
60 | SKIPSSLYIYHM [YGL042C C-terminal 12 aa] | 0.619 ± 0.04
61 | SKLNAVHTANEK [SEC8 C-terminal 12 aa] | 0.686 ± 0.022
62 | SLENVAMLVYKK [TRM13 C-terminal 12 aa] | 0.66 ± 0.026
63 | SLKPSEKKLYYL [NTH2 C-terminal 12 aa] | 0.663 ± 0.02

Row | Sequence | protein stability index
64 | SLLGIQKSVRNL [MDM20 C-terminal 12 aa] | 0.6654 ± 0.006
65 | SLNQPELINFKS [IZH4 C-terminal 12 aa] | 0.71 ± 0.046
66 | SLQKIDATYIRG [SDS22 C-terminal 12 aa] | 0.687 ± 0.017
67 | SLSSLSNQRCTT [YCR023C C-terminal 12 aa] | 0.68 ± 0.052
68 | SMGNYYKSFFSM [OMA1 C-terminal 12 aa] | 0.6294 ± 0.0025
69 | SNHECSQINLLE [YCL021W C-terminal 12 aa] | 0.688 ± 0.017
70 | SPTRKRPPPRLS [INN1 C-terminal 12 aa] | 0.722 ± 0.0076
71 | SQDDSILSSDPF [NIS1 C-terminal 12 aa] | 0.666 ± 0.014
72 | SQFVNDPFWANI [HIS2 C-terminal 12 aa] | 0.756 ± 0.04
73 | SQIRTPLVMLLM [YOR318C C-terminal 12 aa] | 0.454 ± 0.0056
74 | SQPDYKYLFDTQ [YRM1 C-terminal 12 aa] | 0.623 ± 0.025
75 | SRIIIKAARGII [YOR082C C-terminal 12 aa] | 0.678 ± 0.019
76 | SRRFYRKIDHLA [YLR400W C-terminal 12 aa] | 0.507 ± 0.018
77 | SRVVLSQGDSDD [TOF1 C-terminal 12 aa] | 0.662 ± 0.026
78 | SSSSLYTESPIR [IGO1 C-terminal 12 aa] | 0.717 ± 0.066
79 | SSVVSIPLREIL [YNR048W C-terminal 12 aa] | 0.711 ± 0.07
80 | STITSMNPDTTK [VHS2 C-terminal 12 aa] | 0.669 ± 0.04
81 | STKATPTDLSKL [MLS1 C-terminal 12 aa] | 0.8075 ± 0.0051
82 | STTMNFNYQTKV [SDD1 C-terminal 12 aa] | 0.363 ± 0.0082
